The text below walks through data of PMC9468158, “Transmembrane helices mediate the formation of a stable ternary complex of b5R, cyt b5, and SCD1” (Communications Biology, 2022).

Test [1] deals with T1, SCD1, released from the linker-cleaved SCD1-cyt b5 fusions (mouse, UniProt P13516 1-355).
T1 construct: stearoyl-CoA desaturase-1 (SCD1), mouse, UniProt P13516; stands for the SCD1 chain of the fusion with full-length cyt b5 (wild type and TM mutants) and of the fusion with the soluble domain of cyt b5; the GFP tag stood at the C-terminus of the fusion; surmised: ENLYFQ is left at the C-terminus after cleavage
T1 sequence (looked up): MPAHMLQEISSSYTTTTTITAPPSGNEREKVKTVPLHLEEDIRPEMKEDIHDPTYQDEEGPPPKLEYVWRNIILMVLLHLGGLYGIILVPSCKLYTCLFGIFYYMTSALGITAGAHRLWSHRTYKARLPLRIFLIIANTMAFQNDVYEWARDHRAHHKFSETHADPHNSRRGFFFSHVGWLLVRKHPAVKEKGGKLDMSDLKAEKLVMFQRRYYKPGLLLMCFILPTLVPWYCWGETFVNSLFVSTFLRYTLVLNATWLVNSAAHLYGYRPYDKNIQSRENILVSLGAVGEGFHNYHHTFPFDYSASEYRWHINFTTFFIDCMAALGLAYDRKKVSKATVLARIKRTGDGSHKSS
Nature of the test: SEC; binary fusion protein purified, linker cleaved by TEV protease, Superdex 200 10/300 GL in 20 mM HEPES pH 7.5, 150 mM NaCl, 1 mM DDM; elution compared with the tethered fusion. As to conditions: both partners purified.

Test [2] addresses T2, SCD1, released from the linker-cleaved SCD1-cyt b5-b5R fusions (mouse, UniProt P13516 1-355).
T2 construct: stearoyl-CoA desaturase-1 (SCD1), mouse, UniProt P13516; stands for the SCD1 chain of the ternary fusion of the full-length proteins and of the sample with soluble cyt b5 and b5R; surmised: linker residues are left after TEV cleavage; not shown: GFP, N-terminal, cleaved
T2 sequence (looked up): T1 sequence (looked up)
Nature of the test: SEC; ternary fusion SCD1-cyt b5-b5R purified, linkers cleaved by TEV protease, Superdex 200 10/300 GL in 20 mM HEPES pH 7.5, 150 mM NaCl, 1 mM DDM; three proteins in the sample. The settings on record: both partners purified. For orientation: Size exclusion chromatography separates by hydrodynamic size, large species first.

B1: full-length cyt b5, released from the linker-cleaved SCD1-cyt b5 fusion (natural protein, mouse, UniProt P56395 1-134, looked up)
chain: MAGQSDKDVKYYTLEEIQKHKDSKSTWVILHHKVYDLTKFLEEHPGGEEVLREQAGGDATENFEDVGHSTDARELSKTYIIGELHPDDRSKIAKPSDTLITTVESNSSWWTNWVIPAISALAVALMYRLYMAED
notes: cytochrome b5, mouse, UniProt P56395; surmised: G at the N-terminus and ENLYFQ at the C-terminus are left after TEV cleavage; not shown: GFP, C-terminal, cleaved
Regarding B1, the binding result in test [1] is “binds”.

B2: full-length cyt b5, released from the linker-cleaved SCD1-cyt b5-b5R fusion (natural protein, mouse, UniProt P56395 1-134, looked up)
chain: B1 chain
notes: cytochrome b5, mouse, UniProt P56395; surmised: linker residues are left after TEV cleavage
As for B2, the binding result in test [2] was “binds”.

B3: full-length b5R, released from the linker-cleaved SCD1-cyt b5-b5R fusion (enzyme, mouse, UniProt Q9DCN2 1-301, looked up)
chain: MGAQLSTLSHVVLSPVWFIYSLFMKLFQRSTPAITLENPDIKYPLRLIDKEVISPDTRRFRFALPSPQHILGLPIGQHIYLSTRIDGNLVIRPYTPVSSDDDKGFVDLVVKVYFKDTHPKFPAGGKMSQYLENMKIGDTIEFRGPNGLLVYQGKGKFAIRADKKSNPVVRTVKSVGMIAGGTGITPMLQVIRAVLKDPNDHTVCYLLFANQSEKDILLRPELEELRNEHSARFKLWYTVDKAPDAWDYSQGFVNEEMIRDHLPTPGEEPLILMCGPPPMIQFACLPNLERVGHPKERCFTF
notes: no extra residue after the C-terminus of b5R; surmised: a G is left at the N-terminus after TEV cleavage
In the case of B3, in test [2], the binding result is reported as “binds”.
